Measured values: the domain aggregation screens of Martell et al. (2025)

Assay: soluble fraction after stress (log2 fold change); higher = more stays soluble; pooled small domains, quantitative proteomics
Conditions: stress: pH 4
Procedure, shortened: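 Aggregation propensity here comes from the fold change in the soluble amount of each small protein domain after acid stress, measured in pooled custom libraries by high-throughput quantitative proteomics. The acid stress was pH 4. On the log2 scale, higher values mean more of the domain stayed soluble.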

Sequence | soluble fraction (log2)
HMQTNEAIINQAVQAAEAQNITTRSQAVDALKANGMTEAQARQLAVQRGISYDQLINELFPME | 0.108
HMSLREKNKARTRTAILNAARDLAKQGQWDAITTRQIADAAGVSYQTLYNYYPSKASILVEMLL | -0.219
HMKETLSINSTDFEVRRSSRRKRISVGFDTGTETFFIAAPTKLAGTDILRILGPQISRLMDRLT | -0.808
HMGMFNENLRFLRQKRQMSQQAFASILGIPRTTYSEYEKGNTEPNLKLLIRLSELLDVSLDNLISDDLTHN | -0.642
HMTSLAGIERFLASGAIAGVGEAMAHRLVQKFGKETLEIIEKKPSRLTEVAGVGKKTAAKIHASYMEK | 0.0893
HMNVDSLIGQTARVIVDINNNDSIGYALVGGQEWTARAENDNDIIPKDTLVEIVGVSGVKLIVRRKE | -0.0794
HMQTTQQLIRNLRLKQAATLLADKRHSITEVATLTGFTHPTYFATAFREMFGVSPSEYMEQHI | 0.126
HMSQPLYWQIRRMVIDHDDANDVLQNTFIKAWSNIGSFRGDAKFSTWLYKIAVNESITFINKKKVQN | -0.0472
HMAETLRLVGATNLNTLARARHPDDLAARNEFRRAIAQANPALFAGKSKVGSVSLPAGTVLALPPEV | ≥ 0.43
HMDIKKHISATLKREMEKRGLNFMEFSTELGIPRTTLQGYLKGTSSPQADSLEELADKLGISPAELVSG | -0.434
HMQISDSSLIAKTVATVILENPEAVSDYLGGKHSVVRFMVGQIMKKTQGKANPKMATEMLETALNDL | 0.352
HMGQKETIVDLLKTNGTMTQLALAEAIYGDKNHGPNIYSVLMGRVNSGAVLRTGSQPAYYSLSG | 0.22
HMIGKLTSSKLAAIHKMKTNELLAHFTEKGFLNINDAGKYILTQQGKDVGAEFKTSQYGGYFLWPENIE | 0.0031
HMVEIPEFKITTFVNTDNEQIAEFENGFTDKKAEITFNNTKYVFKEKLPDQDGIRTYVYEELHE | -0.438
HMDQHPYGEDSFRGDNPPAGFDIKGNEDSMKFHEPSSPWYGRTIAEVWFRSAAAAEAAGFVNAV | -0.0254
HMETKPTELMLDVHKLRIGMFVYLDLGWMDHPFPLNRFKISTNAQIEQIKGLRLKQVKVMTALSDPASLL | -0.637
HMGQVSDETGLARVVDALLAAHPDEVAKYRAGKTSLLGWFMGQVMKETRGQANPDLARALVLERLE | -0.269
HMIHSEEIQDHIFVKQLGEVFLRNHINYENIMKSWDDHTNVIKRFRRYPHRNKILNRESTIDEISFLKE | -0.0283
HMEVADAAQRKILQALQVQPLTVEQLSQELRTDTGDLLVSLSMMEITGLIRREAGNTFLAVFAPK | -0.598
HMGQISDESVLKEMVVQLIADNPKEVASYLGGKETLLQWFMGQVARATKGKADPQAVKQLLLDEFEKLK | -0.504
HMGQELTPVERTALDIAARDGKVSTRILAQEAGIGLRTASKTLAALAERGLLTWHGTSRRDPQQHYTS | 0.154
HMPDLKIGKDHRLAEYIETKIAEDGYSPGAVLGEIKAKGLEFETEISKPTLYSYIDKGIFLTITNKELPV | 0.0942
HMESENANVNRAMLTGIASMHAGQLETALNKFNEVIQLAPDFAEGWNKRATIFYLMKKFDRSVNDIAQTLK | -0.741
HMTAGTGIAYSEFRSKVQEGQVKDVAIAPDRITGTLSSGQKFSTVPVNDPGLPKMLDDFNVKYSGQA | 0.22
HMVVVMEKNASSAEIEQVQERLRQAGFKIHLSQGVERTIIGAIGDRSQVDLGFLEALPGVEKVVPIMK | 0.248
HMSVDDEQLLKIIDDIFQQNPQAVTDAKTDSNAIHFLIGQVMKETKGHADHAISKEIIEKKLS | -0.726

Sequence | soluble fraction (log2)
HMGDTLEIVVIYSNKQKAEEAVNNLKGKFEDLGYNFAIITVDTSKITQLAMESSIQYIEFPKSFYFSD | -1.29
HMTGMEAAEFGKRIMKLRKQKGMTQSKLAEQINVSNKAISRWETGEGFPEITLLKPLAKALGTTVDELFGE | -0.271
HMGIVTMPGQGSKMRFDFDATGDLPSSTSWRGMFAYANNTKRAYVSTGTTMGGYNGWRQLIAMDEYGNYQT | 0.22
HMGPIITKTYNLSYATARDVNDIIKSKKSARGDIVIDTRTNSLIVSDVQEKIDLIDEIVATL | -1.37
HMTFENMFIENSGETLDREFLVENLRGISWQSYDRSVDVLVSRLRGKLGETPNNTRFIKTIHGVGYKFIGE | -0.472
HMSQISKLWRPSEDVTEILTRSGMDSEFLEGLIPEFIIYWSERADVLVSYNSKFIEHARLKWAQHSAEIKT | -1.94
HMAKINFTSDAIDIGMVTRNDIEMLSFYQNVLGLTKDMEIPFPGLGVVNKLSFGSGFIKILVL | -0.272
HMTGNWRQMHKVKSKETIYGIAKEYGITVDELTKANPGMEAPGYTLKKGDYIFIPYATADANV | 0.0315
HMTFDWAAYEISEKEIRVMSLVAEGFSNKEIAQELFLSEGTVRNYISNILEKLGLRDRTQLAVHYLKAV | -1.52
HMSFGWESLENKEGVADTDLHPSGWVRIEDSRIFVVSEGDFINKGSKVTVLTVDGNRVVVRELI | -1.79
HMMKLSKRQEQIIAVVKEHQPVSGERISDILAVSRATLRSDLSFLTLSGILKASPKVGYTYES | ≥ 0.43
HMTGQLTEEELKQRQERAMSNPEIQGILSDPVMRQVLQDMSTDPKAAAEHQRNPTIMAKIQKLINAGIVQV | -0.0717
HMQILNVFSKHGIKPISPQIGDKFDPQLHEAMFEAPVPGTKAGDIIEVSSEGFMLYDRLLRPAHVGVSSN | -0.138
HMKFKDYYAALGIDRNADLEQIKKAYRKLARQYHPDVSKAPDAEARFKDAAEAYATLKNPEKRAAYDELGS | 0.22
HMEDYYKILGVSKDASIDDIKKSYRKLSLQNHPDRNKSPQASENFAKINSAYEVLSDQRKKRQYDMQQSM | ≥ 0.43
HMQVSDANQLTDVVKSIIKQYPVEVEKYKSGKKALFGFFMGKVMENLKGKSNPKILKNVLTEILD | 0.263
HMKPTVKVPNVVNLSLRNAQIQLQNYGLEVGSISYESSRFKNAVLRQSISEGSVVEKGTTINLVISDGL | 0.178
HMSRAHTELEEKLLTMLEENDMTLPMRVISNIASRIEGIIIPEEKILEVLKKSYDRYREHQMD | -0.784
HMDTNAIIGLRIKNLRTEKKYTLKYLSENTGLSIGFLSQLERGMTSIAIDSLDKISKVLDVELSSFFT | -0.14
HMDYHTIQTGDKGDEVLRLQQALAEYGYYEGDLDGRFGQQTRRAVERFQYSHGLTADGIAGRNTLSVLYD | -0.051
HMKKNTEALDYYKKAGANFPEDEVISSEYLFRAAQLQEVLGKTDEAVAIYKDIKAKYPTTEIGLNVDKFIL | -0.181
HMLEVTQTDVKMYTTSGTPVYAAPDLNSAIVVYLERFVNVTVTGITDNGFYRVNLNGDYYIPGPYLISSV | -0.759
HMDLTKLFDHDSEYGKSYVFGKITDEMIARAEQTLGYRMPASYIELLKVQNGGMISDELDESWLTTIYGIG | -0.932
HMYEDIDSAYRILEINSTVSNQEIKNAYRRMAKKYHPDKVAHLGVEHQKGAEEKFKKVQEAYILIKKRRG | -0.146
HMEEEDELALFLREERKNYDLTLTDVHEKTGIPQKVLKEFQWGDAQLTDRQRYTLTQYVEEAREYFQENA | -0.998
HMNTWVEIFRAEDQGQIRDASLVLLAVKVAHRVDMNSSSAPWSLMVPAQDQQRAHHELTTYWQENAH | -1.35

Sequence | soluble fraction (log2)
HMFIPMTDAQRHLFANKLAKLPELSEYSRGTESYEDFAIRIADMLLEPPKFRMFYPLLEQLGF | -1.19
HMTNADRFIGEEAMVIKKIDDINNDGQVKIAGQVWSAVSEDKSPLEEGTIVKVIAIRGVKLVVEPVS | 0.0967
HMRFEWFDTLTDREKEIFGLIATGFDNQQIADRLQLAEQTVRNNISTIYSKLEVKDRFEIIRLANTI | -1.29
HMNEDDQLLKVLLAEPLRLEELYNLDLKPQGPYNLQTWIMVHLTELERDGLIARFPDGRYGPAR | -1.57
HMKSTELSIIEALRVLGLKHGASQDSIKKSYRRLVKQHHPDLGGSADSFRKVNEAYQLLIMN | 0.0586
HMKLIRLGKAAGELNVGMSTLAEFLQSKGHSVDPNPNTKLTPEQYALLRMEFAADQTLKKLTKQP | -0.117
HMSKHATLLEALAELTVKLKPHTQLPSERQLSEDFGVSRMTLRRAIDVMQSRGYIYTVPSKGLYVSEP | -0.156
HMAVFSKKQIFDTAFALFESKGLEAITARNLGKALSSSPAPIYAHYSSITELKNELISVAKDR | -0.692
HMDEAETELIRRMVSEHPPTTKRERDIVQMRLRGYLFVEIGEAYGISFQRAAQIYNAAVEKIKEYWD | -0.454
HMSESAGKAFDLLFYLAKAGETVSLARLSRETGMNKATALRYLNVLESKGVVERSKLGWTLGLSLFELGSK | -0.508
HMNDLIFSTLAEYDRDTITEIISVVDNTRGIGYEVELVRKDLIAMAAQAEARRDYLPSVIGDVEVFKRNLL | -0.0414
HMEVLTEPKVQSIDTHGEKSTFVIESPNPLQPDEIAKLVGADGISVRVDRTWLKSHRDSTWTYSILTVS | 0.163
HMDDTRLLSEIGLSQRVLNALRARGIERVGQVLAMRPDQLLGIRNFGPRALQELRERLQENGYTEGPLFSG | -0.252
HMEILTLEELKRLMAKAKLKQNQISGHAGVSKQQISMILAGKRNITKDVSDNLKANLAEYFP | 0.107
HMETADREILLREIREIINERVDYNKDITDDEMKELVMNTVFERSRQQYMSIQDKQEIIQAIFNSMR | -1.02
HMAIDINKIYSEIKKKIPNQDNHIKEILSIIWRDFNNYQNIKSRSILINGEKSSPKKEIFNIIEDNINIPV | 0.00852
HMSVGDLPPEAREIWKLLDGRELSLDLLAEETGRETGALLSTLMMLEMKLLVEHGSDMVYRRIPRR | -1.62
HMLSDHGLNDRQIMVIAGLMNGGTVTVRSIESQYGVSLNTARADVKMLVDAGLLTETGREVNMKVYSWSGK | -0.22
HMTIGKRIKRRRIELKMSIDSLARTIGKDRSTVYRYESGAIDKVSSDVLAKLATALNTTPAYLIGL | 0.22
HMKDMKISTKNLLQELAKNYPDQTSFRKNVIETTARAMGYTGKDFYPLLTTDNRVKIGTYDLATFLRSI | -0.122
HMSVGDLLENLIRETRAQFSAPPESLGVAEKRRFVALLSQKGGFLLKGAVSRAASVLGVSEQTVYRYLKDS | 0.0671
HMQVVDWSQVDKEDYLLATKRRAVSTGELKFLLLNNLTYDLTQTRFFKGMDASYYYEGYNLYQTGE | -0.693
HMMLVKKMLNGIMMKEITIKELADQYDVSTRTIQLKIKKLGYEWDSKESIYRYVGKESEPLDVDFSTLI | -1.47
HMKRSFGSVRQLRSGNYQARYTGPDTVRHTSPVTYTSKMDAEAWLVDERRKISSGTWTPPAR | 0.251
